For data set [1], the target named is T1, ScCsoR (Streptomyces coelicolor M145) (UniProt Q9RD62).
T1 sequence: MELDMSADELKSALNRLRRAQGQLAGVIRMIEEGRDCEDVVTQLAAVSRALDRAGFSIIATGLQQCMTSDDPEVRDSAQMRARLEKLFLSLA
Briefly: EMSA. The following applies: 20 mM Tris-HCl pH 8.0, 2 mM EDTA, 20 mM KCl, 0.5 mM DTT (or 1-3 mM HSnH), 4% Ficoll-400, 1 nM probe, 25 C, 15 min. (In general: Mobility shift assays separate free from complexed probe on a gel.)

In data set [2] the test system is T2, ScCsoR-C37S C38S (Streptomyces coelicolor M145), ORF:9a82776c.
T2 sequence: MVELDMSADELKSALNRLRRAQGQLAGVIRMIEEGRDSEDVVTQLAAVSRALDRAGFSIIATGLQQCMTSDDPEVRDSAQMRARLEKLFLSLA
Put plainly: EMSA. The following applies: 20 mM Tris-HCl pH 8.0, 2 mM EDTA, 20 mM KCl, 0.5 mM DTT (or 1-3 mM HSnH), 4% Ficoll-400, 1 nM probe, 25 C, 15 min.

Data set [3] concerns T3, ScCsoR-C37S-C66S C38S;C67S (Streptomyces coelicolor M145), ORF:9a82776c.
T3 sequence: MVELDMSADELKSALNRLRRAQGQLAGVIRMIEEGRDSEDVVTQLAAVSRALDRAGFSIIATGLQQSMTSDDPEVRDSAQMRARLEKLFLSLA
Briefly: EMSA. The following applies: 20 mM Tris-HCl pH 8.0, 2 mM EDTA, 20 mM KCl, 0.5 mM DTT (or 1-3 mM HSnH), 4% Ficoll-400, 1 nM probe, 25 C, 15 min.

Data set [4] has as its system T4, ScCsoR-C66S C67S (Streptomyces coelicolor M145), ORF:9a82776c.
T4 sequence: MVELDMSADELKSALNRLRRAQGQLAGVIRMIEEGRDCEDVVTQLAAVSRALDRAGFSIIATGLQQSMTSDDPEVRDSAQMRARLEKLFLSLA
Put plainly: EMSA. The following applies: 20 mM Tris-HCl pH 8.0, 2 mM EDTA, 20 mM KCl, 0.5 mM DTT (or 1-3 mM HSnH), 4% Ficoll-400, 1 nM probe, 25 C, 15 min.

Data set [5] has as its target T5, ScCsoR (Streptomyces coelicolor M145, UniProt Q9RD62 1-92).
T5 sequence: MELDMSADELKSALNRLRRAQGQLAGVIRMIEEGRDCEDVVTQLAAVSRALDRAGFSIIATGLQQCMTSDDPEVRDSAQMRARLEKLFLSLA
Briefly: competition EMSA; 50-fold excess over 79-bp probe; 20 mM Tris-HCl pH 8.0, 2 mM EDTA, 20 mM KCl, 0.5 mM DTT (or 1-3 mM HSnH), 4% Ficoll-400, 1 nM probe, 25 C, 15 min. The following applies: protein: recombinant; tags: N-terminal His-tag (pET15b); chain copies: 4; blunt.

Data set [6] deals with T5, ScCsoR. Put plainly: EMSA; DTT; also with 50-fold competitor DNA; 20 mM Tris-HCl pH 8.0, 2 mM EDTA, 20 mM KCl, 0.5 mM DTT (or 1-3 mM HSnH), 4% Ficoll-400, 1 nM probe, 25 C, 15 min. The following applies: protein: recombinant; tags: N-terminal His-tag (pET15b); chain copies: 4; label: 5'-biotin on strand 1; blunt.

Consider “CGACGACGGTGAACTCGGCCAGGCGGGCCGCCGCCTGCCCGGTGGTCAGTGCGGTGGCGGTTGCTGCGGGGGTGTTCACGGAGCGAGACCTTTCTCGTTGTTCGTCCCCCCGCGCGGTAGGATACCCGCGGGGGTATGTGGGGTTCGGTGAGGTATCGGGTGGAGGAGAGGGAGAAGCGTGGAGCTCGACATGTCGGCCGACGAACTGAAGTCGGCGCTGAACCGGCTGCGGCGCGCCCAGGGGCAGCTCGCGGGAGTCAT (double strand) [SccsoR-Scrhod intergenic region 261 bp]”, for which, in data set [1], the binding entry is given as “binds”.
Turning to “AGGACGTCGACAAAGAACACGGCACGCTCTCCTTCCGGAATTACCCCCTGGGGTATCTCTTCCGGCCACCGTAACAGATATACCCAGGGGGGTATTGAGAGGGTGTGC (double strand) [Scpdo promoter f3]”, the binding result in data set [1] is recorded as “binds”.
“TCTGCTCACGCCGCCCCCGCGCCGTCGCGGGCCGAGTGCGCCGCCGCTGCGCGCCTGTGCCGCGAGACCCGGGCAACTCCGGTGTACGACGCCGAAGTTGGGGTAC (double strand) [Scpdo promoter f1]”: the binding entry in data set [1] is “no binding”.
Regarding “CGGTGACCTTCTCCGCCCCGTGTTCGGCGGCGAGGCGCACCGCGGCCTCGGCCAGAGCGGCACGTGTGGCCCGCTTCTTCCGCTCCCGCAGACCGCCCCCCGCGGCACCCTTCTCCGACATAAGTTGCATGGTATGCAAAGATGCATGACATGCAAAATTGGCGGGCGCCGACCCCGGAAGGGGATCGGCGCCCGCCGTCGTCGGTGCGGCTCAGGCGGCCAGTCGGGCCAGCGTCTCCTCG (double strand) [sco0622 promoter 242 bp]”, in data set [1], the binding entry is on record as “no binding”.
For the molecule “ACGGCGCGGGGGCGGCGTGAGCAGACGACGAGCACACCCTCTCAATACCCCCCTGGGTATATCTGTTACGGTGGCCGGAAGAGATACCCCAGGGGGTAATTCCGGAAGGA (double strand) [Scpdo promoter f2]”, the binding result in data set [1] is recorded as “binds”.
“GCCAGATAGCTGCGGTTGCCCAGTGACTCGGTCTCCAGGACGTCGACAAAGAACACGGCACGCTCTCCTTCCGGAATTACCCCCTGGGGTATCTCTTCCGGCCACCGT (double strand) [Scpdo promoter f4]”: the binding result in data set [1] is recorded as “no binding”.
With “GCCAGATAGCTGCGGTTGCCCAGTGACTCGGTCTCCAGGACGTCGACAAAGAACACGGCACGCTCTCCTTCCGGAATTACCCCCTGGGGTATCTCTTCCGGCCACCGTAACAGATATACCCAGGGGGGTATTGAGAGGGTGTGCTCGTCGTCTGCTCACGCCGCCCCCGCGCCGTCGCGGGCCGAGTGCGCCGCCGCTGCGCGCCTGTGCCGCGAGACCCGGGCAACTCCGGTGTACGACGCCGAAGTTGGGGTAC (double strand) [Scpdo promoter 256 bp]”, the binding result in data set [1], in data set [2], in data set [3] and in data set [4] was “binds” throughout.

B1: hrdB 79-bp competitor DNA (dsDNA)
DNA 1: CATTCCCAAGCCGGTGGTCGGCCCCTGTCCGCCGTGGACGGGGCCGGAAGCCGTTTTTCAACGTTCCGAGAGGTTGTTC
DNA 2: GAACAACCTCTCGGAACGTTGAAAAACGGCTTCCGGCCCCGTCCACGGCGGACAGGGGCCGACCACCGGCTTGGGAATG
On to B1, for which, in the data set with ScCsoR [5], the binding result is on record as “no binding”.

B2: Scpdo 79-bp probe (bsI, bsII) (dsDNA)
DNA 1: CCTGGGTATATCTGTTACGGTGGCCGGAAGAGATACCCCAGGGGGTAATTCCGGAAGGAGAGCGTGCCGTGTTCTTTGT
DNA 2: ACAAAGAACACGGCACGCTCTCCTTCCGGAATTACCCCCTGGGGTATCTCTTCCGGCCACCGTAACAGATATACCCAGG
As to B2, in the data set with ScCsoR [6], the binding result was “binds”.

(Values after paper PMC7533328, “Sulfane sulfur‐activated actinorhodin production and sporulation is maintained by a natural gene circuit in Streptomyces coelicolor”.)
